Experimental data published in paper PMC5581011.
Read-outs that look alike come from different tables or passages of the source.

Key:
[1] = biological target: gimsilumab (human); test: ELISA; data not shown; rituximab and gimsilumab with sCA125, binding of CD16a-biotin
[2] = biological target: rituximab; test: as above
[3] = biological target: mesothelin on CHO-MSLN cells (UniProt Q13421); test: absorption (depletion) of sCA125 on cells; sCA125 preparation absorbed on CHO-MSLN cells or CHO-K1 parental cells; what is left in the supernatant
UniProt Q13421, sequence (Q13421 other isoform, or with tags, fused parts or gaps): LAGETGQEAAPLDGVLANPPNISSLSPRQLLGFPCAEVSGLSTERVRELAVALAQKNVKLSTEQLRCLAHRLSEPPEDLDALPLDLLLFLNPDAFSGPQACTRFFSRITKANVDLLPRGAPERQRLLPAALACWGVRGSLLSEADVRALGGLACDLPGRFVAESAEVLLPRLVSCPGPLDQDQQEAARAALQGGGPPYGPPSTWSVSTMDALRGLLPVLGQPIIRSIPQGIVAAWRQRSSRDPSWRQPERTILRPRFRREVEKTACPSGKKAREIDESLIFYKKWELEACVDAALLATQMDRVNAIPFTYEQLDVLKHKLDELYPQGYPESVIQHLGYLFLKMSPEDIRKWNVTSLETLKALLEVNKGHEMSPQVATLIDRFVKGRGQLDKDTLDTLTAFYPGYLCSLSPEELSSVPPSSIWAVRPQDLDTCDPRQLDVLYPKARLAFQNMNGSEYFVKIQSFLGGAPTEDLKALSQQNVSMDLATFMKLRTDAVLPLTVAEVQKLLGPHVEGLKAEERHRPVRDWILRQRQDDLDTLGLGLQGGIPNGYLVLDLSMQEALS

[4] = biological target: farletuzumab, humanized IgG1 monoclonal antibody to folate receptor alpha (human (humanized IgG1)); test: ELISA; unlabeled farletuzumab incubated alone or with sCA125 or HSA, probed with biotinylated CD16a, CD32a or CD64a; percent inhibition of Fc receptor binding compared to control
farletuzumab, humanized IgG1 monoclonal antibody to folate receptor alpha (human (humanized IgG1)), sequence (heavy, as listed by the source, chain 1 of 2): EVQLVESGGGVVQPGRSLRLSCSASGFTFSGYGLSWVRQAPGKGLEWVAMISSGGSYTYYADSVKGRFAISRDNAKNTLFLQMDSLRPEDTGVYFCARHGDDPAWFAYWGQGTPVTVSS
farletuzumab, humanized IgG1 monoclonal antibody to folate receptor alpha (human (humanized IgG1)), sequence (light, as listed by the source, chain 2 of 2): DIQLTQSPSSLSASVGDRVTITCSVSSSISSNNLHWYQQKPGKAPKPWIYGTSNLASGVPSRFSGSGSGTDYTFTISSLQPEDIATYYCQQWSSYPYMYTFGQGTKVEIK

[5] = biological target: farletuzumab, humanized IgG1 monoclonal antibody to folate receptor alpha (human (humanized IgG1)); test: as above; remark: listed apart in the source

gimsilumab (human), sequence (heavy, as listed by the source, chain 1 of 2): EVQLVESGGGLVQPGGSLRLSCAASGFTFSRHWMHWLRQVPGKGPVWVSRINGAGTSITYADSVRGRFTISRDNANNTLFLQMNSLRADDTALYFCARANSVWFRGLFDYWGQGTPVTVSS
gimsilumab (human), sequence (light, as listed by the source, chain 2 of 2): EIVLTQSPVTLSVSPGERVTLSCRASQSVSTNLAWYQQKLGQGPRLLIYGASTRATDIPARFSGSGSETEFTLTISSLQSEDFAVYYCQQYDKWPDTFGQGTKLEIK

percent inhibition of CD16a-biotin binding to the antibody [1]: < 50% | percent inhibition of CD16a-biotin binding to the antibody [2]: < 50% | percent of sCA125 removed by absorption on CHO-MSLN cells [3]: 98% | percent inhibition of CD16a-biotin binding to farletuzumab [4]: 38 to 50% | percent inhibition of CD16a-biotin binding to farletuzumab [5]: 46% | percent inhibition of CD32a-biotin binding to farletuzumab [5]: 12%
Substance: soluble CA125 (sCA125), tumor-shed antigen CA125/MUC16 (from UniProt Q8WXI7 1-14507) (natural protein)
